Test results taken from PMC3158066, “An Inserted α/β Subdomain Shapes the Catalytic Pocket of Lactobacillus johnsonii Cinnamoyl Esterase” (PLoS ONE, 2011).
Numbering of substitutions follows the chain as printed. Names may count otherwise.

B1: apo-LJ0536 (wild type), as crystallised after treatment with subtilisin (enzyme, Lactobacillus johnsonii N6.2, UniProt D3YEX6 1-245, looked up)
chain: MATITLERDGLQLVGTREEPFGEIYDMAIIFHGFTANRNTSLLREIANSLRDENIASVRFDFNGHGDSDGKFENMTVLNEIEDANAILNYVKTDPHVRNIYLVGHSQGGVVASMLAGLYPDLIKKVVLLAPAATLKGDALEGNTQGVTYNPDHIPDRLPFKDLTLGGFYLRIAQQLPIYEVSAQFTKPVCLIHGTDDTVVSPNASKKYDQIYQNSTLHLIEGADHCFSDSYQKNAVNLTTDFLQN
notes: LJ0536, serine cinnamoyl esterase, Lactobacillus johnsonii N6.2; residues 1-245 seen in the map, four C-terminal residues lost to the protease, plus five residues of the expression tag; Crystallised with the His6 tag uncleaved, but only five residues of the expression tag are seen after the protease treatment; also called apo WT LJ0536; not shown: His6, N-terminal, kept
B2: LJ0536 (cinnamoyl esterase) (Lactobacillus johnsonii; H225A) (protein)
chain: MATITLERDGLQLVGTREEPFGEIYDMAIIFHGFTANRNTSLLREIANSLRDENIASVRFDFNGHGDSDGKFENMTVLNEIEDANAILNYVKTDPHVRNIYLVGHSQGGVVASMLAGLYPDLIKKVVLLAPAATLKGDALEGNTQGVTYNPDHIPDRLPFKDLTLGGFYLRIAQQLPIYEVSAQFTKPVCLIHGTDDTVVSPNASKKYDQIYQNSTLHLIEGADACFSDSYQKNAVNLTTDFLQNNNAF
notes: full length in p15TV-L, E. coli BL21(DE3); His6-tag removed by TEV for kinetics; crystals: tag uncleaved, protease-treated (subtilisin or V8), residues 1-245 modelled, four C-terminal residues lost
B3: LJ0536 Ser106Ala mutant, as crystallised after treatment with V8 protease (enzyme, Lactobacillus johnsonii N6.2)
chain: B2 chain with S106A, A225H
notes: made from the p15TV-L wild-type clone; also called LJ0536 S106A; S106A; not shown: His6, N-terminal, kept
B4: LJ0536 (cinnamoyl esterase) (Lactobacillus johnsonii; D138A) (protein)
chain: B2 chain with D138A, A225H
notes: as for B2
B5: LJ0536 (cinnamoyl esterase) (Lactobacillus johnsonii; Q145A) (protein)
chain: B2 chain with Q145A, A225H
notes: as for B2
B6: LJ0536 (cinnamoyl esterase) (Lactobacillus johnsonii; S68A) (protein)
chain: B2 chain with S68A, A225H
notes: as for B2
B7: LJ0536, cinnamoyl esterase of Lactobacillus johnsonii N6.2 (wild type) (enzyme, UniProt D3YEX6 1-249, looked up)
chain: B2 chain with A225H
notes: LJ0536, serine cinnamoyl esterase, Lactobacillus johnsonii N6.2; the crystallised fragment 1-245 is said to lack four C-terminal residues of the full-length protein; The protein as used for gel filtration; also called WT
B8: LJ0536 (cinnamoyl esterase) (Lactobacillus johnsonii; H32A) (protein)
chain: B2 chain with H32A, A225H
notes: as for B2
B9: LJ0536 (cinnamoyl esterase) (Lactobacillus johnsonii; DEL147-173) (protein)
chain: MATITLERDGLQLVGTREEPFGEIYDMAIIFHGFTANRNTSLLREIANSLRDENIASVRFDFNGHGDSDGKFENMTVLNEIEDANAILNYVKTDPHVRNIYLVGHSQGGVVASMLAGLYPDLIKKVVLLAPAATLKGDALEGNTQGQQLPIYEVSAQFTKPVCLIHGTDDTVVSPNASKKYDQIYQNSTLHLIEGADHCFSDSYQKNAVNLTTDFLQNNNAF
notes: as for B2

Legend:
[1] = molecular target: T1, LJ0536 (cinnamoyl esterase) (Lactobacillus johnsonii, UniProt D3YEX6, S106A); test: X-ray crystallography, co-crystal; type: binding; conditions: 0.1 M Tris pH 8.5, active site
T1 construct: gene FEE39_08260; full length in p15TV-L, E. coli BL21(DE3); His6-tag removed by TEV for kinetics; crystals: tag uncleaved, protease-treated (subtilisin or V8), residues 1-245 modelled, four C-terminal residues lost
T1 sequence (D3YEX6 entry or part of it S106A): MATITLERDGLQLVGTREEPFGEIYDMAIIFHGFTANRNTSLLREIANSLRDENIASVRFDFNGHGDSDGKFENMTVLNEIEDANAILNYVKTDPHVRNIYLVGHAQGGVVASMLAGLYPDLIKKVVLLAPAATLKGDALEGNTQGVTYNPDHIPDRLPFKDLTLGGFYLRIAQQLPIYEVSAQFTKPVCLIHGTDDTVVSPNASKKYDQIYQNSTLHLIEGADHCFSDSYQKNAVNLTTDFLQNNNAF

[2] = molecular target: the molecule itself; test: crystal structure; sitting drop, protein at 15 mg/mL with His6-tag uncleaved, pre-treated with subtilisin (apo) or V8 protease (S106A); S106A co-crystallised with ethyl ferulate
purified protein = substrate: CCCC(=O)Oc1ccc([N+](=O)[O-])cc1; test: purified protein; type: biochemical, Lactobacillus johnsonii; conditions: HEPES pH 7.80, 25 °C (typical assay; saturation conditions as in ref 14), pH 7.8
[3] = molecular target: the molecule itself; test: SEC; gel filtration on Superose 12 10/300GL (FPLC), mobile phase 10 mM HEPES with 150 mM NaCl, calibrated with molecular weight standards
[4] = deletion made by ligation at a SmaI junction

| Molecule | Km (purified protein) [µM] | Vmax (purified protein) [µmol/min/mg] | kcat (purified protein) [s⁻¹] | kcat/Km (purified protein) [M⁻¹ s⁻¹] | also measured |
| --- | --- | --- | --- | --- | --- |
| COc1cc(/C=C/C(=O)O)ccc1O [ferulic acid] | – | – | – | – | X-ray crystallography, co-crystal ([1]; 5 mM ligand, 1.75 Å): co-crystallized this mutant with ferulic acid, ethyl ferulate, or chlorogenic acid |
| CCOC(=O)/C=C/c1ccc(O)c(OC)c1 [ethyl ferulate] | – | – | – | – | X-ray crystallography, co-crystal ([1]; Form I (5 mM ligand, 1.58 Å, 3PFB) and Form II (25 mM ligand, 1.82 Å, 3QM1)): The Ser106Ala-ethyl ferulate complex crystallized in two forms |
| B1 | – | – | – | – | binding result [2]: binds |
| B2 | 190 ± 40 | 0.65 | 0.3 | 1570 | – |
| B3 | – | – | – | – | binding result [2]: binds |
| B4 | 220 ± 30 | 1.23 | 0.57 | 2570 | – |
| B5 | 290 ± 40 | 2.05 | 0.94 | 3250 | – |
| B6 | 80 ± 20 | 0.47 | 0.22 | – | – |
| B7 | 160 ± 20 | 3.34 | 1.53 | 9590 | binding result [3]: binds |
| B8 | 130 ± 80 | 0.09 | 0.04 | 318 | – |
| B9 | – | – | – | – | Km (purified protein; [4]): 650 ± 120 µM; Vmax (purified protein; [4]): 0.28 µmol/min/mg; kcat (purified protein; [4]): 0.13 s⁻¹; kcat/Km (purified protein; [4]): 198 M⁻¹ s⁻¹ |
